In US10323078B2, “Isolated peptides and fragments thereof from fibrinogen for use as drugs, particularly in skin inflammatory diseases” (Universite Paris Descartes, priority 2015, dated 2019):

Columns and labels:
[1] = tested on: P. acnes RON strain; experiment: Adhesion assay, biotinylated P. acnes binding to monocytes (ThP1); assay type: cell-based, Propionibacterium acnes; conditions: monocytes (THP-1); bacteria pretreated 0.87 to 7 μM, 1 h at 37° C.
Procedure: FIG. 13: Dose-dependent inhibition of P. acnes RON binding to monocytes cell line. Biotinylated P. acnes RON strain at concentrations adjusted to 0.1 of absorbance at 600 nm was pre-treated with the recombinant peptides Fg1 and Fg2 and incubated 1 h at 37° C. with the human immortalized monocytes cell line ThP1. After removal of unbound bacteria, adhesion activity was detected at 410 nm. Data are means±S.D. of three separate experiments. Statistical significance is indicated by * (P<0.05), ** (P<0.01), *** (P<0.001), and **** (P<0.0001), respectively.
The bacterial suspension was adjusted at 600 nm to the desired concentration, pretreated with peptides Fg1 and Fg2 at the final concentration ranging from 0.87 to 7 μM for 1 h at 37° C. and deposited on the previously saturated cells with a solution of PBS SVF 2% for 2 h. After incubation for 1 h at 37° C., unbound bacteria are removed by 3 washes with PBS and fixed bacteria are detected by a streptavidin-peroxidase solution of 0.5 μg/ml for 30 min.
Whole P. acnes bacteria are labelled by biotinylation, pre-treated or not with the peptides and contacted with the various cell lines. After removal of the unfixed bacteria, the adhesion activity was measured spectrophotometrically by using the streptavidin-peroxidase conjugate and a chromogenic substrate. […]

[2] = tested on: MRC5 cells; experiment: O2°− production by P. acnes-stimulated MRC5; assay type: cell-based, human; conditions: bacteria first pretreated, 0.87 to 7 μM
Procedure: (§1) For experiences of stimulation with P. acnes, cells were incubated with the P. acnes suspension adjusted at the appropriate concentration, pre-treated for 1 h at 37° C. or not with fibrinogen recombinant peptides Fg1 and Fg2 at the concentrations 0.87, 1.75, 3.5 or 7 μM for the desired period of time at 37° C. in 5% CO2.
(§2) All cells lines (5·10^4 to 10^5 cells/well) were seeded in 96-well plates (Corning Costar, Brumath, France) and treated as previously described. After stimulation, cells were washed three times in PBS and incubated with 100 μl per wells of 5 μM DHE (for determination of O2^●−) or 5 μM H2-DCFDA (for determination of H2O2) for 30 min as described previously and fluorescence intensity was recorded every hour over a period of 5 h. Fluorescence excitation/emission maxima were for DHE: 480/610 nm and for H2-DCFDA: 507/525 nm. At the end of the experiment, the number of adherent cells was evaluated by the crystal violet assay as described below. O2^●−, and H2O2 were assayed by spectrofluorimetry on a Fusion spectrofluorimeter (PackardBell, Paris, France). Levels of ROS were calculated in each sample as follows: reactive oxygen species rate (arbitrary units/min/10^6 cells)=(fluorescence intensity [arbitrary units] at T5h—fluorescence intensity [arbitrary units] at To/300 minutes/number of adherent cells as measured by the crystal violet assay, and were expressed as arbitrary unit (A.U.).
To assess the efficacy of Fg1 recombinant peptide, the production of O2^∘− and H2O2 by HaCaT cells NHDK, THP-1, MRC5 and HDF stimulated by pretreated P. acnes strains 6919, RON and PIE was measured. The amount of ROS produced was compared to that produced by the stimulated cells with untreated bacteria. Production baseline was obtained by measuring ROS on unstimulated cells. The production of IL-1ß, IL-8, IL-12 and TNF-α was also measured in all conditions cited above. The measurement of the production of ROS is performed by spectrofluorimetry in the presence of specific fluorochromes directly on the monolayer cell. […]

[3] = tested on: HaCaT cells; experiment: O2°− production by P. acnes-stimulated HaCaT (spectrofluorimetry, DHE); assay type: cell-based, human; conditions: bacteria first pretreated, 0.87 to 7 μM
Procedure: FIG. 14: Dose-dependent inhibition of O2^∘− production by keratinocytes stimulated by P. acnes pre-treated by recombinant peptide. HaCaT cell were incubated for 18 h with P. acnes PIE strain at a concentration adjusted to 0.2 of absorbance at 600 nm (blue bar) and with P. acnes pretreated with recombinant peptide Fg1 (light gray bar) and Fg2 (dark gray bar). Measurement of superoxide anion production was realized by spectrofluorometry as described in Materials and Methods. Control experiment was done on unstimulated HaCaT cell (red bar). Data are means±S.D. of three separate experiments. Statistical significance is indicated by * (P<0.05), ** (P<0.01), *** (P<0.001), and **** (P<0.0001), respectively.
as §1
as §2, with “O2^●−, and H2O2 were assayed by spectrofluorimetry on a Fusion spectrofluorimeter (PackardBell, Paris, France).” left out, “(A.U.). […]” for “(A.U.).”

[4] = tested on: HDF cells; experiment: TNF-α production by P. acnes-stimulated HDF (ELISA); assay type: cell-based, human; conditions: 0.87 to 7 μM
Procedure: as §1
Human IL-1ß, IL-8, IL-12, hBD-2, and TNF-α protein concentration was measured in the supernatants of stimulated cells using various ELISA Set kits (Ready-Set-Go kit from eBioscience for acne experiments, and for psoriasis experiments the Duo set IL-8 kit from R&D Systems and the BD-2 Human Development (hBD-2) from Peprotech) according to the manufacturer's instructions. We used serial dilutions of recombinant human IL-1ß, IL-8, IL-12 and TNF-α for standard curve. The optical density was determined at 450 nm at a wavelength correction of 540 nm.
To assess the efficacy of Fg1 recombinant peptide, the production of O2^∘− and H2O2 by HaCaT cells NHDK, THP-1, MRC5 and HDF stimulated by pretreated P. acnes strains 6919, RON and PIE was measured. The amount of ROS produced was compared to that produced by the stimulated cells with untreated bacteria. Production baseline was obtained by measuring ROS on unstimulated cells. The production of IL-1ß, IL-8, IL-12 and TNF-α was also measured in all conditions cited above. The measurement of the production of ROS is performed by spectrofluorimetry in the presence of specific fluorochromes directly on the monolayer cell. Measurement of cytokine production was performed in parallel on the cell culture supernatant.
Two sets of experiments were implemented: 1) The cells were stimulated (18 h at 37° C.) by P. acnes strains previously pretreated with Fg1 and Fg2 peptides at the final concentrations ranging from 0.87 to 7 μM for 1 h at 37° C.; and 2) The cells were pretreated first with Fg1 and Fg2 peptides at the final concentrations ranging from 0.87 to 7 μM for 24 h at 37° C. and stimulated (18 h at 37° C.) by P. acnes strains.

B1: MKRMVSWSFHKLKTMKHLLLLLLCVFLVKSQGVNDNEEGFFSARGHRPLDKKREEAPSLRPAPPPISGGGYRARPAKAAATQKKVERKAPDAGGCLHADPDLGVLC (protein)
chain: MKRMVSWSFHKLKTMKHLLLLLLCVFLVKSQGVNDNEEGFFSARGHRPLDKKREEAPSLRPAPPPISGGGRARPAKAAATQKKVERKAPDAGGCLHADPDLGVLCMKRMVSWSFHKLKTMKHLLLLLLCVFLVKSQGVNDNEEGFFSARGHRPLDKKREEAPSLRPAPPPISGGGYRARPAKAAATQKKVERKAPDAGGCLHADPDLGVLC
modifications: GST fusion; fragment Fg1
notes: fragment of Bß chain of human fibrinogen having 106 amino acids; recombinant GST-fused peptide expressed in E. coli
Inhibition of adhesion of P. acnes RON strain [1]: inhibits the adhesion of RON strain in a dose-dependent manner
Inhibition of Superoxide anion (O2°−) production ([2]; P. acnes 6919, set I): pos
Inhibition of Superoxide anion (O2°−) production ([2]; P. acnes PIE, set I): pos
Inhibition of Superoxide anion (O2°−) production ([2]; P. acnes RON, set I): pos
Inhibition of Superoxide anion (O2°−) production ([3]; P. acnes 6919, set I): pos
Inhibition of Superoxide anion (O2°−) production ([3]; P. acnes PIE, set I): pos
Inhibition of Superoxide anion (O2°−) production ([3]; P. acnes RON, set I): pos
Inhibition of Interleukine TNF alpha (TNF-α) production ([4]; P. acnes 6919, set I, bacteria first pretreated): pos
Inhibition of Interleukine TNF alpha (TNF-α) production ([4]; P. acnes 6919, set II, cells first pretreated): pos
Inhibition of Interleukine TNF alpha (TNF-α) production ([4]; P. acnes PIE, set I, bacteria first pretreated): pos
Inhibition of Interleukine TNF alpha (TNF-α) production ([4]; P. acnes PIE, set II, cells first pretreated): pos
Inhibition of Interleukine TNF alpha (TNF-α) production ([4]; P. acnes RON, set I, bacteria first pretreated): pos
Inhibition of Interleukine TNF alpha (TNF-α) production ([4]; P. acnes RON, set II, cells first pretreated): pos
